Assay results from the supplement of paper PMC10126150.
± gives the standard deviation of the averaged measurements.

Tested on: ATP
Experiment: switch fluorescence ratio, 500 uM ATP over buffer (Cy3 cluster intensity, sum of 5 cycles each) (fold (ratio)); higher = stronger signal-on switching upon ATP binding; sequences stand for … in TCGTCGGCAGCGTCAGATGTGTATAAGAGACAGTTTTTTTTTTTTTTTTTTTTTTTTT…TC
Conditions: aptamer strand: ATP DNA aptamer (quencher-CACCTGGGGGAGTATTGCGGAGGAAGG + anchor), 100 nM annealed; ATP concentration: 500 uM
Method in brief: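 For every switch-domain sequence, the fluorescence ratio is the mean of per-cluster values, each being summed target-cycle Cy3 intensity over summed buffer-cycle Cy3 intensity. Clusters outside 100-1000 RFU were excluded. On a modified Illumina MiSeq flow-cell, the Cy3-labelled switching-strand clusters were annealed to 100 nM quencher-labelled ATP aptamer, imaged in selection buffer and then after 15 min with 500 uM ATP at 22 °C. Five such cycles were run, with NaOH stripping and re-annealing between them.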
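Further: ATP exposure 15 min at 22 °C before imaging.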

Sequence	switch fluorescence ratio
TGGGTTATCG	0.998 ± 0.025
GCAAAGGGCT	1 ± 0.035
ACTTTTTGGG	1.01 ± 0.065
TCAGTCGGAT	0.9768 ± 0.0078
GCTCCATCGA	1.11 ± 0.015
TAGGACGGTG	0.992 ± 0.034
ATTAAGCAT	1.04 ± 0.053
CTTTGAAGGA	0.992 ± 0.03
CGTAACCTTA	1.05 ± 0.15
CTTGCATGGC	1.077 ± 0.0092
AGATGGTGGG	1 ± 0.025
GCAATTTCAG	1.05 ± 0.021
TTGCATATAG	1.3 ± 0.065
GGGGTCTGCG	1.03 ± 0.059
AAATTCAATG	0.995 ± 0.013
TGACTTAGTT	0.999 ± 0.051
GAAATCAGGT	1.02 ± 0.019
TGTTGAAAGG	0.995 ± 0.046
TGTGTCGCGT	0.983 ± 0.02
GACAGGGGTT	1.04 ± 0.015
GGGTTTATAT	0.997 ± 0.022
AAGGGGTGAC	0.977 ± 0.041
CCGGATTAA	1.02 ± 0.039
AATTATACAT	1.04 ± 0.043
TGTTAAATGG	0.962 ± 0.014

Sequence	switch fluorescence ratio
TTATTCATCG	1.01 ± 0.031
CAAGTAATTG	1.025 ± 0.0088
AGAGTATTAG	1 ± 0.013
TTGGAACGGG	1.02 ± 0.011
GGGGGGTGG	0.9912 ± 0.0055
CGATTTTTTG	1 ± 0.019
TTTTTTCCGC	1.34 ± 0.35
GGGGGCGTGT	0.977 ± 0.019
GCTTTAAGGG	0.995 ± 0.024
CTTCCGCTTG	1.58 ± 0.021
GGTGGAAGGA	1.02 ± 0.029
GTGTTATGGG	0.978 ± 0.037
TATCAGTTGT	1.03 ± 0.013
AAGAGGGTGG	0.997 ± 0.02
TGGGCAGGGA	0.9817 ± 0.0024
ATCAGCGTTT	1.012 ± 0.0092
GGGCATGTAG	0.996 ± 0.058
CTGATGCGGG	1.06 ± 0.062
CCGGCGGGCT	1.05 ± 0.013
ACGCCGGCGA	0.9729 ± 0.002
TGGGCTTGTT	0.999 ± 0.036
CCTTTGGAAT	1.16 ± 0.031
TTGATGGGAT	0.988 ± 0.052
TTGTTTTACA	0.9843 ± 0.0096
GTTACACTCA	1.032 ± 0.002

Sequence	switch fluorescence ratio
ATGGGGACTA	1.0122 ± 0.00084
CGTATAGCGG	1.02 ± 0.076
AAAATACATT	0.993 ± 0.039
AACGGGGTGG	0.976 ± 0.044
CAGGGACATT	1.08 ± 0.067
AGGTTAGTAG	0.973 ± 0.0052
CCTTGATCTG	1.06 ± 0.02
TTAAAGCGTG	0.969 ± 0.011
TAAATAGGGA	1.01 ± 0.03
AGTCGTTTGC	0.938 ± 0.061
TTGGCTATTT	0.9981 ± 0.0075
GACAGGGCGG	0.983 ± 0.049
ATATGTTTGG	1.01 ± 0.018
CAGTCAGCGG	1.01 ± 0.02
GGTTTTATTT	0.984 ± 0.068
TCTCTGGAGA	1.04 ± 0.011
GGTGGCAAAT	1.01 ± 0.013
GGGAAATTAG	1 ± 0.026
CTGTATTTGT	1.03 ± 0.019
ATGAAATAGT	0.959 ± 0.046
CGAAGCAGGA	2.4 ± 0.097
CGTGTGGTAT	1.01 ± 0.042
GCTTTGGCTT	1 ± 0.03
TTGGTATGTA	1 ± 0.018
TTTATTATTT	0.989 ± 0.024

Sequence	switch fluorescence ratio
GGGTGGTGGC	0.964 ± 0.082
GTCTGATTTG	0.999 ± 0.023
CGTATGGGGG	1.07 ± 0.08
TGGTGGTCAG	0.98151 ± 0.00069
GGATTCTAAT	0.982 ± 0.01
CCTGCTTGGT	1.029 ± 0.0082
AGTGTAGAGC	0.975 ± 0.017
ATTAAAGTTT	1.04 ± 0.034
TTTTAGTCGT	0.991 ± 0.02
CGTGTTGTTT	1.003 ± 0.01
AATGTTCTTT	0.977 ± 0.062
TTTTTCAGTA	0.981 ± 0.016
TTCAATCCGT	1.17 ± 0.24
TGCTGGCGCG	1 ± 0.033
AGTGTGACAG	0.987 ± 0.018
TGATGAAAAA	1.01 ± 0.04
AACTAGGATA	1.01 ± 0.02
TAAAGGATTC	0.979 ± 0.045
TTGTGGGGCC	1 ± 0.029
AACAGGACTG	1 ± 0.036
GGGTGAAATA	1.02 ± 0.019
GAGGATGGTT	0.964 ± 0.04
TCGTATCGGG	1 ± 0.034
GTCACCTTGA	1.01 ± 0.014
GCGAGGGGGA	0.984 ± 0.046
